The record followed here is article PMC1278935, “Different Catalytic Mechanisms in Mammalian Selenocysteine- and Cysteine-Containing Methionine-R-Sulfoxide Reductases” (PLoS Biology, 2005).

Substrate in data set [1]: CN(C)c1ccc(N=Nc2ccc(S(=O)(=O)N[C@@H](CC[S@@+](C)[O-])C(=O)O)cc2)cc1
Briefly: HPLC of dabsyl-Met, Lineweaver-Burk. Format: biochemical, Mus musculus. The note with it: 20 mM DTT, 50 mM sodium phosphate pH 7.5, 50 mM NaCl, 37 °C. The text has this: HPLC of dabsyl-Met, Lineweaver-Burk on MsrB1 (Sec-containing MsrB1; Cys form MsrB1-Cys)

Substrate in data set [2]: CN(C)c1ccc(N=Nc2ccc(S(=O)(=O)N[C@@H](CC[S@@+](C)[O-])C(=O)O)cc2)cc1
Briefly: HPLC of dabsyl-Met, Lineweaver-Burk. In kind it is biochemical, Homo sapiens. The note with it: 20 mM DTT, 50 mM sodium phosphate pH 7.5, 50 mM NaCl, 37 °C, from E. coli. The text has this: HPLC of dabsyl-Met, Lineweaver-Burk on MsrB3

Changes are numbered by the printed parent chain. Names and notes keep the numbering of the source.

B1: MsrB1 (Sec-containing MsrB1; Cys form MsrB1-Cys) (Mus musculus) (protein)
chain: MSFCSFFGGEVFQNHFEPGVYVCAKCSYELFSSHSKYAHSSPWPAFTETIHPDSVTKCPEKNRPEALKVSCGKCGNGLGHEFLNDGPKRGQSRFUIFSSSLKFVPKGKEAAASQGH
notes: full length, monomer; Sec forms: natural SECIS element, C-terminal His tag (five His added to own C-terminal His), from NIH 3T3 cells; C-terminally tagged form of similar activity also made
Usually Km stands for the concentration of substrate that gives half-maximal velocity. For orientation: kcat means the maximal rate divided by the concentration of active sites. Turning to B1, in data set [1] (Sec form from NIH 3T3), the Km came out at 500 ± 100 µM and the kcat came to 0.223 ± 0.0383 s⁻¹.

B2: MsrB1 (Sec-containing MsrB1; Cys form MsrB1-Cys) (Mus musculus; F97N/G77H/U95C) (protein)
chain: B1 chain with G77H, U95C, F97N
notes: as for B1
As to B2, in data set [1] (MsrB1-Cys from E. coli), the Km came out at 13200 ± 2400 µM and the kcat was 0.023 ± 0.005 s⁻¹.

B3: MsrB1 (Sec-containing MsrB1; Cys form MsrB1-Cys) (Mus musculus; F97N) (protein)
chain: B1 chain with F97N
notes: as for B1
In the case of B3, in data set [1] (Sec form from NIH 3T3), the Km worked out at 4300 ± 1600 µM and the kcat came to 0.01 ± 0.0033 s⁻¹.

B4: MsrB1 (Sec-containing MsrB1; Cys form MsrB1-Cys) (Mus musculus; U95C) (protein)
chain: B1 chain with U95C
notes: as for B1
Consider B4, for which, in data set [1] (MsrB1-Cys from E. coli), the Km turned out to be 1300 ± 200 µM and the kcat is 0.00183 ± 0.0005 s⁻¹.

B5: MsrB1 (Sec-containing MsrB1; Cys form MsrB1-Cys) (Mus musculus; G77H) (protein)
chain: B1 chain with G77H
notes: as for B1
For B5, in data set [1] (Sec form from NIH 3T3), the Km amounted to 800 ± 50 µM and the kcat came out at 0.0433 ± 0.013 s⁻¹.

B6: MsrB1 (Sec-containing MsrB1; Cys form MsrB1-Cys) (Mus musculus; F97N/G77H) (protein)
chain: B1 chain with G77H, F97N
notes: as for B1
Take B6: in data set [1] (Sec form from NIH 3T3), the Km turned out to be 6400 ± 2100 µM and the catalytic constant (kcat) stood at 0.04 ± 0.0083 s⁻¹.

B7: MsrB3 (Homo sapiens; H77G) (protein)
chain: SGSCRDKKNCKVVFSQQELRKRLTPLQYHVTQEKGTESAFEGEYTGHKDPGIYKCVVCGTPLFKSETKFDSGSGWPSFHDVINSEAITFTDDFSYGMHRVETSCSQCGAHLGHIFDDGPRPTGKRYCINSAALSFTPADSSGTAEGGSGVASPAQADKAEL
notes: MsrB3A delta(1-31), residues 32-192, endoplasmic reticulum signal removed, C-terminal His tag (LEHHHHHH), E. coli BL21(DE3), monomer
In the case of B7, in data set [2] (MsrB1 numbering), the Km was 1000 ± 200 µM and the kcat was 0.0283 ± 0.005 s⁻¹.

B8: MsrB3 (Homo sapiens; N160Y) (protein)
chain: B7 chain with G46H, N129Y
notes: as for B7
B8: in data set [2] (MsrB1 numbering), the Km came to 1200 ± 100 µM and the kcat was 0.00033 ± 0.00017 s⁻¹.

B9: MsrB3 (Homo sapiens) (protein)
chain: B7 chain with G46H
notes: as for B7
As to B9, in data set [2], the Km worked out at 800 ± 50 µM and the catalytic constant (kcat) was determined as 0.827 ± 0.07 s⁻¹.

B10: MsrB3 (Homo sapiens; I113E) (protein)
chain: B7 chain with G46H, I82E
notes: as for B7
With B10, in data set [2] (MsrB1 numbering), the Km is 200 ± 50 µM and the kcat amounted to 0.07 ± 0.0083 s⁻¹.
